Target: human recombinant TGFβ1 (Peprotech) (human) (UniProt P01137)
Assay: cell-based or functional assay

Sequence of human recombinant TGFβ1 (Peprotech) (human) (P01137 279-390 limits assumed): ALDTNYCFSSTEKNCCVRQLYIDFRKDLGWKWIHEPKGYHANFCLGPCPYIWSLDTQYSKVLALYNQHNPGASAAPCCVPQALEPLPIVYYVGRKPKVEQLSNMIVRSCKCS

Row | fold-change in IFNy secretion, sub-optimal aCD3/aCD28 beads (1:300) + 10 ng/ml TGFβ versus beads alone | fold-change in IFNy secretion, αCD3/αCD28 beads (1:100) + 10 ng/ml TGFβ versus beads alone | Substance
1 | 1.9 fold | 1.2 fold | BM2, ectodomain of TGFβ receptor II (TGFβRII) with transmembrane and intracellular domains of CD137 (from UniProt P37173 23-166; Q07011 187-255)
2 | 0.7 fold | 0.87 fold | BM3, truncated version of TGFβRII (from UniProt P37173 23-199) (receptor)

From patent EP4509522A1
